From PMC4892619

What was measured:
[1] = target: T1, CsrA-His6 (Campylobacter jejuni 81-176) (UniProt Q0P9F1); test: EMSA; settings: 10 mM Tris-HCl pH 7.5, 10 mM MgCl2, 100 mM KCl, 32.5 ng yeast RNA, 20 mM DTT, 7.5% glycerol, 4 U RNase inhibitor, 10 ul, 30 min at 37 C; 15% native PAGE
T1 sequence: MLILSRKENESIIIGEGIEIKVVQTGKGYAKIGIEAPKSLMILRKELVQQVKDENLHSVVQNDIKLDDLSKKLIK

[2] = tested on: CsrA-His6 (Campylobacter jejuni 81-176); test: EMSA; settings: 10 mM Tris-HCl pH 7.5, 10 mM MgCl2, 100 mM KCl, 32.5 ng yeast RNA, 20 mM DTT, 7.5% glycerol, 4 U RNase inhibitor, 10 ul, 30 min at 37 C; 15% native PAGE

| Substance | Kd [1] [nM] | Kd [2] [nM] |
| --- | --- | --- |
| GGGUAUAAAUUUUUAAAAAAAAGUAACGAUAUAGCAUUUAACAAGCUCAUGGAUGAGUUUGAAAUUAUUUAAAAGGAUUUAAA [flaA mRNA 5' end transcript] | 6.53 |  |
| flaA mRNA 5' end transcript |  | 6.53 |
